Measurements as given in the Human Domainome abundance scans (Beltran et al. 2025).
± gives the uncertainty stated by the source.

B1: Membrane-associated guanylate kinase, WW and PDZ domain-containing protein 2, residues 296 to 340; numbered along this chain, Q86UL8 (parent)
chain: EDNEEPDPLPDNWEMAYTEKGEVYFIDHNTKTTSWLDPRLAKKAK

Variants of: B1
Test: abundance fitness (aPCA) (normalised: wild type 0, dead -1); higher = more abundant; growth selection in yeast, the domain comes from the species named
Conditions: Homo sapiens

Variant	abundance fitness
K20T	-0.063 ± 0.06
K20E	0.027 ± 0.067
K20V	-0.075 ± 0.044
K20L	-0.078 ± 0.052
K20Q	0.018 ± 0.055
K20A	-0.02 ± 0.043
K20R	-0.032 ± 0.042
K20I	-0.12 ± 0.065
K20S	0.002 ± 0.075
Y17H	0.066 ± 0.089
Y17P	-0.828 ± 0.22
Y17L	0.024 ± 0.069
Y17E	-0.42 ± 0.47
Y17W	0.021 ± 0.048
Y17N	-0.042 ± 0.15
Y17D	-0.355 ± 0.066
Y17R	0.049 ± 0.055
Y17S	-0.03 ± 0.064
Y17A	-0.025 ± 0.056
Y17T	-0.039 ± 0.14
Y17I	0.017 ± 0.1
Y17F	-0.029 ± 0.045
Y17G	-0.349 ± 0.072
Y17K	-0.048 ± 0.1

Variant	abundance fitness
Y17C	0.004 ± 0.067
E14D	-0.097 ± 0.23
E14T	-0.162 ± 0.084
E14N	-0.241 ± 0.057
E14A	-0.47 ± 0.18
E14S	-0.083 ± 0.097
E14R	-0.415 ± 0.06
E14L	-0.561 ± 0.069
E14W	-1.04 ± 0.14
E14V	-0.264 ± 0.048
E14Q	0.032 ± 0.12
E14F	-0.705 ± 0.1
E22A	-0.228 ± 0.052
E22R	-0.409 ± 0.048
E22P	-0.825 ± 0.13
E22V	-0.325 ± 0.048
E22T	-0.295 ± 0.063
E22I	-0.517 ± 0.12
E22S	-0.227 ± 0.046
E22Q	-0.084 ± 0.065
E22N	-0.314 ± 0.08
E22Y	-0.404 ± 0.067
E22D	-0.091 ± 0.05
E22C	-0.377 ± 0.095

Variant	abundance fitness
E22L	-0.321 ± 0.063
E22W	-0.551 ± 0.051
E22G	-0.359 ± 0.042
E22K	-0.234 ± 0.065
E22M	-0.314 ± 0.061
E22F	-0.645 ± 0.43
K31T	-0.355 ± 0.071
K31H	0.103 ± 0.11
K31S	-0.114 ± 0.054
K31Y	-0.235 ± 0.11
K31Q	0.013 ± 0.056
K31W	-0.2 ± 0.058
K31R	0.005 ± 0.039
K31I	-0.498 ± 0.079
K31D	-0.38 ± 0.091
K31M	-0.008 ± 0.058
K31E	-0.08 ± 0.043
K31V	-0.473 ± 0.048
K31L	-0.155 ± 0.048
K31G	-0.074 ± 0.038
K31P	-0.675 ± 0.076
K31C	-0.024 ± 0.055
E4G	0.1 ± 0.07
E4Q	0.306 ± 0.11

Variant	abundance fitness
E4C	-0.005 ± 0.1
E4P	0.138 ± 0.18
E4R	0.109 ± 0.056
E4L	0.03 ± 0.096
E4S	0.078 ± 0.089
E4V	0.027 ± 0.044
V23W	-0.295 ± 0.05
V23Q	0.14 ± 0.077
V23G	-0.088 ± 0.066
V23L	-0.062 ± 0.072
V23P	-0.038 ± 0.099
V23E	-0.038 ± 0.046
Y24W	-0.568 ± 0.049
Y24N	-1.08 ± 0.49
Y24S	-0.703 ± 0.083
Y24Q	-0.809 ± 0.11
Y24A	-0.664 ± 0.075
Y24V	-0.598 ± 0.074
Y24C	-0.546 ± 0.28
Y24L	-0.557 ± 0.09
Y24P	-1.07 ± 0.21
Y24D	-0.618 ± 0.084
Y24R	-0.86 ± 0.071
Y24G	-0.816 ± 0.048

Variant	abundance fitness
Y24T	-0.872 ± 0.097
N12V	-0.703 ± 0.14
N12C	-0.163 ± 0.12
N12R	-0.044 ± 0.051
N12D	-0.136 ± 0.064
N12W	-0.271 ± 0.091
N12T	-0.224 ± 0.093
N12G	0.088 ± 0.061
N12E	-0.303 ± 0.12
N12M	-0.292 ± 0.072
N12S	-0.199 ± 0.077
I26V	0.01 ± 0.069
I26L	-0.089 ± 0.068
I26W	-0.691 ± 0.1
I26A	-0.521 ± 0.073
I26Q	-0.259 ± 0.11
I26H	-0.618 ± 0.077
I26T	-0.733 ± 0.35
I26R	-0.379 ± 0.056
I26D	-1.15 ± 0.16
I26E	-0.585 ± 0.077
I26C	-0.258 ± 0.093
I26M	0.023 ± 0.16
I26S	-0.677 ± 0.084

Variant	abundance fitness
I26F	-0.549 ± 0.17
T30D	-0.324 ± 0.088
T30A	-0.107 ± 0.042
T30P	-1.17 ± 0.076
T30R	-0.183 ± 0.038
T30Q	-0.155 ± 0.079
T30L	-0.221 ± 0.058
T30V	-0.386 ± 0.049
T30M	-0.388 ± 0.34
T30F	-0.575 ± 0.13
T30E	-0.156 ± 0.067
T30S	0.122 ± 0.075
T30G	-0.256 ± 0.037
T30C	-0.185 ± 0.061
L9S	-0.453 ± 0.5
T32H	-0.434 ± 0.063
T32K	-0.303 ± 0.12
T32C	0.007 ± 0.11
T32M	-0.071 ± 0.069
T32F	-0.843 ± 0.37
P8A	-0.014 ± 0.054
P8I	-0.156 ± 0.096
P8T	-0.035 ± 0.059
P8M	0.019 ± 0.074

Variant	abundance fitness
P8G	-0.03 ± 0.044
P8L	0.021 ± 0.058
P8S	-0.056 ± 0.056
P8E	-0.069 ± 0.056
P8Y	-0.228 ± 0.12
P8H	-0.105 ± 0.058
P8D	-0.121 ± 0.093
P8R	0.052 ± 0.062
A16D	-0.398 ± 0.14
A16F	-0.709 ± 0.23
A16V	-0.271 ± 0.053
A16E	-0.239 ± 0.062
A16M	-0.254 ± 0.065
A16C	-0.274 ± 0.089
A16T	-0.335 ± 0.071
A16I	-0.529 ± 0.15
A16W	-0.598 ± 0.07
A16R	-0.127 ± 0.052
A16S	0.002 ± 0.074
A16L	-0.337 ± 0.055
A16G	-0.109 ± 0.052
A16Y	-0.432 ± 0.093
A16K	-0.119 ± 0.064
